Test results reported in US7097988B1 (ADVANCED RESEARCH AND TECHNOLOGY INSTITUTE, dated 2006).
Read-outs that look alike come from different tables or passages of the source. Ends that are not written are not given here.

Experiments:
[1] = molecular target: T1, rat μ-opioid receptor MOR-1 (Rattus norvegicus, UniProt P33535, V245I); experiment: biochemical; type: binding
T1 construct: A 1.4-kilobase HindIII fragment encompassing the open reading frame from the cDNA encoding MOR-1 was cloned; expressed in transfected cells; host or cells: COS-7

[2] = molecular target: T2, human μ receptor (adenylyl cyclase) (Homo sapiens, UniProt P35372); type: cell-based
T2 construct: the cDNA containing the open reading frame of the receptor was cloned downstream of the human cytomegalovirus promoter in the mammalian expression vector pcDNA3; expressed in transfected cells; host or cells: COS-7 (transient)

[3] = molecular target: T3, cloned human mu opioid receptor (human, UniProt P35372 1-400); experiment: displacement of […] [3H]DAMGO; membranes of COS-7 cells expressing the human µ receptor
T3 construct: Full-length receptor expressed from pcDNA3 in COS-7 cells (membranes) or from mRNA in Xenopus oocytes; also called human µ opioid receptor; human µ receptor

[4] = molecular target: T4, rat μ opioid receptor coupled to G protein-activated K+ channel (Rattus norvegicus, UniProt P33535, V245I); type: cell-based
T4 construct: A cDNA clone, MOR-1, containing the protein coding region of a rat μ opioid receptor has been described; expressed in transfected cells; host or cells: Xenopus oocytes (mRNA injection)

[5] = molecular target: T5, rat mu opioid receptor MOR-1 (rat, UniProt P33535 1-398); experiment: displacement of 0.25 nM [3H]diprenorphine; membranes of COS-7 cells expressing MOR-1
T5 construct: Full-length receptor expressed from the cDNA in COS-7 cells (membranes), stably in CHO cells (membranes, whole cells) or in Xenopus oocytes; also called rat µ-opioid receptor; cloned rat µ receptor

rat μ opioid receptor = molecular target: T6, rat μ opioid receptor (Rattus norvegicus, UniProt P33535, V245I); type: binding
T6 construct: A plasmid containing a 1.4 kb cDNA for the rat μ opioid receptor in a mammalian expression vector pRc/CMV has been described; expressed in transfected cells

[6] = molecular target: T5, rat mu opioid receptor MOR-1; experiment: cell-based or functional assay
[7] = molecular target: T5, rat mu opioid receptor MOR-1; experiment: saturation binding; membranes of stably transfected CHO cells
[8] = molecular target: T5, rat mu opioid receptor MOR-1; experiment: [3H]DAMGO binding to COS-7 membranes with 100 mM GTPgS in the assay
[9] = molecular target: T3, cloned human mu opioid receptor; experiment: as above
[10] = molecular target: T5, rat mu opioid receptor MOR-1; experiment: saturation binding of [3H]DAMGO; membranes of stably transfected CHO cells
[11] = molecular target: T3, cloned human mu opioid receptor; experiment: saturation binding; membranes of COS-7 cells expressing the human µ receptor
[12] = molecular target: T5, rat mu opioid receptor MOR-1; experiment: [3H]DAMGO binding to membranes of COS-7 cells pretreated with pertussis toxin
[13] = molecular target: T3, cloned human mu opioid receptor; experiment: as above
[14] = molecular target: T3, cloned human mu opioid receptor; experiment: saturation binding, Scatchard analysis; membranes of COS-7 cells expressing the human µ receptor
[15] = molecular target: T5, rat mu opioid receptor MOR-1; experiment: whole-oocyte binding of 1 nM ^3H-DAMGO; oocytes injected with mRNAs for the µ receptor and the K^+ channel
[16] = molecular target: T3, cloned human mu opioid receptor; experiment: inhibition of 2 nM [3H]DAMGO binding; membranes of COS-7 cells expressing the human µ receptor
[17] = molecular target: T7, human μ opioid receptor coupled to G protein-activated K+ channel (Homo sapiens, UniProt P35372); type: cell-based
T7 construct: Messenger RNAs encoding both proteins (Chen and Yu, 1994) were generated by in vitro transcription and injected into Xenopus oocytes; expressed in transfected cells; host or cells: Xenopus laevis oocytes (mRNA injection)

[18] = molecular target: T8, cloned human μ opioid receptor (Homo sapiens, UniProt P35372); conditions: read-out: Binding potencies (Ki-nM), human μ receptor, [3H]DAMGO
T8 construct: the cDNA containing the open reading frame of the receptor was cloned downstream of the human cytomegalovirus promoter in the mammalian expression vector pcDNA3; expressed in transfected cells; host or cells: COS-7 (transient)

[19] = molecular target: T9, novel member of the opioid receptor gene family (SEQ ID NO: 17) (Rattus norvegicus, UniProt P35370); type: cell-based
T9 construct: mRNA of this clone was synthesized by in vitro transcription and coinjected into Xenopus oocytes; expressed in transfected cells; host or cells: Xenopus oocytes (mRNA injection)

[20] = molecular target: human μ opioid receptor hμOR1 (Homo sapiens, UniProt P35372, D51N)
Mu1 site = conditions: Clark et al., 1988; cited from earlier work
Mu2 site = conditions: Clark et al., 1988; cited from earlier work
[21] = molecular target: μ opioid receptor (PL-17 sites), guinea pig brain membranes; conditions: read-out: affinity (displacement of radiolabeled PL-17); Kawasaki et al., 1990; cited from earlier work
[22] = molecular target: mu opioid receptor (DAMGO sites); conditions: read-out: affinity (displacement of radiolabeled DAMGO); Vaughn and Taylor, 1989; cited from earlier work
[23] = molecular target: T5, rat mu opioid receptor MOR-1; experiment: inhibition of [3H]DAMGO binding; membranes of COS-7 cells expressing the rat µ receptor

T9 sequence (P35370 whole entry): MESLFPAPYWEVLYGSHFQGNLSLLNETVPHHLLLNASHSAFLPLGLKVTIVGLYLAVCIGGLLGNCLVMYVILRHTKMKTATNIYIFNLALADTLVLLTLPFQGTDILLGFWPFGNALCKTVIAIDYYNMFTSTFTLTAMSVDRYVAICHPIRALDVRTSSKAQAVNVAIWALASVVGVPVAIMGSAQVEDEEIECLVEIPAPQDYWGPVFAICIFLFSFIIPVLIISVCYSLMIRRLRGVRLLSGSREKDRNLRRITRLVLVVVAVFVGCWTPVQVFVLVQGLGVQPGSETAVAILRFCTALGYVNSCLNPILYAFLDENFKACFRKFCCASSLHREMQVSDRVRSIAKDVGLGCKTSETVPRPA

Question: With `COc1cccc2c1[C@]13CCN(CC4CC4)[C@H](C2)[C@]1(OC)CCC(=O)C3` [Cyprodime] as the molecule, how does the Ki [1] read?
Answer: The Ki was 9.1 ± 2.8 nM.

Question: And the “Ki values (in words)” value [1]?
Answer: The value was “nanomolar range”.

Question: With Leu-enkephalin as the molecule, how does the “effect on forskolin-stimulated cAMP accumulation (in words)” value [2] read?
Answer: Its value is “significantly reduced”.

Question: For [D-Pen^2,5]-enkephalin (peptide), which IC50 [3] is on record?
Answer: Its IC50 is > 1000 nM.

Question: With `Nc1ncnc2c1nc(Sc1ccc(Cl)cc1)n2[C@@H]1O[C@@H]2COP(=O)(O)O[C@H]2[C@H]1O` [8-CPT-cAMP, 8-chlorophenylthio-cAMP] as the molecule, how does the “effect of kinase modulators on desensitization (in words)” value [4] read?
Answer: The value was “completely abolished the desensitization”.

Question: With cyclic somatostatin (peptide) as the molecule, how does the IC50 [5] read?
Answer: Its IC50 is 11000 nM.

Question: Which “effect on specific [3H]DAMGO binding (in words)” value (rat μ opioid receptor) does the source give for `Nc1nc2c(ncn2[C@@H]2O[C@H](COP(=O)(O)OP(=O)(O)OP(=O)(O)O)[C@@H](O)[C@H]2O)c(=O)[nH]1` [GTP] here?
Answer: The value was “decrease the specific binding”.

Question: Which results are given for “[D-Ala^2, N-Me-Phe^4, Gly-ol^5]-enkephalin (peptide)”?
Answer: DAMGO/control (cAMP with forskolin plus DAMGO over forskolin only), morphine-treated cells [6]: 42.4%; DAMGO/control (cAMP with forskolin plus DAMGO over forskolin only), naive cells [6]: 71.9%; EC50 of inhibition of forskolin-stimulated intracellular cAMP, naive transfected CHO cells [6]: 30 nM; GTPase activity of G proteins, stably transfected CHO cells, 10 µM DAMGO [6]: 30%; barium current through a voltage-activated calcium channel, Xenopus oocytes with the channel and the mu opioid receptor, 1 µM DAMGO [6]: > 80 % reduction; intracellular cAMP level after forskolin, COS-7 cells expressing MOR-1, 100 nM DAGO [6]: 18.1 % reduction; intracellular cAMP level, Forskolin + DAMGO (1 µM), morphine-treated cells (fmol/1 × 10^3 cells) [6]: 38.9; intracellular cAMP level, Forskolin + DAMGO (1 µM), naive cells (fmol/1 × 10^3 cells) [6]: 25.6; low Km GTPase activity, membranes of stably transfected CHO cells, 1 µM DAMGO [6]: 33%; maximal inhibition of intracellular cAMP, naive transfected CHO cells [6]: 25%; maximal inhibition of intracellular cAMP, transfected CHO cells treated with morphine for 24 hr [6]: 60%; Kd [7]: 1 nM; decrease of specific labelling by GTPgS [8]: 55%; decrease of specific labelling by GTPgS [9]: 65%; Bmax (fmol/mg membrane protein) [10]: 630; Kd [10]: 0.47 nM; Bmax (fmol/mg membrane protein) [11]: 381; decrease of labelling after PTX-pretreatment [12]: 42%; decrease of labelling after PTX-pretreatment [13]: 79%; Ki [5]: 2.8 nM; Bmax [14]: 232 fmol/mg; Kd [14]: 1 nM; specific binding [15]: 1 fmol/oocyte

Question: With `Nc1nc2c(ncn2[C@@H]2O[C@H](COP(=O)(O)OP(=O)(O)NP(=O)(O)O)[C@@H](O)[C@H]2O)c(=O)[nH]1` [Gp(NH)pp] as the molecule, how does the “effect on specific [3H]DAMGO binding (in words)” value (rat μ opioid receptor) read?
Answer: The value was “decrease the specific binding”.

Question: Which Ki [16] does the source give for “CTOP, D-Phe-Cys-Tyr-D-Trp-Orn-Thr-Pen-Thr-NH2 (peptide)” here?
Answer: The Ki was 3.9 nM.

Question: For `CC1=C[C@H]2[C@@]3(O)[C@H](C)[C@@H](O)[C@]4(O)[C@H]([C@@H]3C=C(CO)C[C@@]2(O)C1=O)C4(C)C` [4α-phorbol], which “second DAMGO response relative to the first (peak current)” value [17] is on record?
Answer: Its value is 87%+2%.

Question: With `COC(=O)/C=C/C(=O)N[C@@H]1CC[C@@]2(O)[C@H]3Cc4ccc(O)c5c4[C@@]2(CCN3CC2CC2)[C@H]1O5` [β-funaltrexamine] as the molecule, how does the “Ki values (in words)” value [1] read?
Answer: Its value is “nanomolar range”.

Question: What about the Ki ([1]; read-out: Ki values) of the same molecule?
Answer: The Ki was 1.3 ± 0.1 nM.

Question: And the Ki [18]?
Answer: The Ki was 0.29 nM.

Question: For `CC1(C)SSC(C)(C)[C@@H](NC(=O)[C@@H](N)Cc2ccc(O)cc2)C(=O)NCC(=O)N[C@@H](Cc2ccccc2)C(=O)N[C@H]1C(=O)O` [DPDPE, [D-Pen^2.5]-enkephalin], which “induction of potassium conductance (in words)” value [19] is on record?
Answer: The value was “no potassium conductance was induced”.

Question: For “GGFMTSEKSQTPLVTLFKNAIIKNAYKKGE [des-Tyr^1-β-endorphin]”, which Ki [18] is on record?
Answer: The Ki was > 1000 nM.

Question: With `CC(C)C[C@H](NC(=O)[C@H](Cc1ccccc1)NC(=O)CNC(=O)[C@@H](CO)NC(=O)[C@@H](N)Cc1ccc(O)cc1)C(=O)N[C@H](C(=O)O)[C@@H](C)O` [DSLET, [D-Ser, Leu^5, Thr^6]-enkephalin] as the molecule, how does the Ki [1] read?
Answer: The Ki was 314 nM.

Question: For `CN1CC[C@]23CCCC[C@H]2[C@H]1Cc1ccc(O)cc13` [levorphanol], which “effect on forskolin-stimulated cAMP accumulation (in words)” value [2] is on record?
Answer: Its value is “decreased cAMP accumulation”.

Question: For Dynorphin A, which “difference in Ki between the inventor's clone and the clone of Wang et al.” value [20] is on record?
Answer: The value was “over 100 fold”.

Question: What about the Ki (Mu1 site) of the same molecule?
Answer: Its Ki is 0.7 nM.

Question: And the Ki (Mu2 site)?
Answer: The Ki was 2.2 nM.

Question: What about the Ki [21] of the same molecule?
Answer: The Ki was 5 nM.

Question: What about the Ki [22] of the same molecule?
Answer: Its Ki is 3 nM.

Question: Which results are given for `CCCCCCCCCCCCCC(=O)O[C@@H]1[C@@H](C)[C@@]2(O)[C@@H](C=C(CO)C[C@]3(O)C(=O)C(C)=C[C@@H]23)[C@@H]2C(C)(C)[C@]12OC(C)=O` [PMA, phorbol 12-myristate 13-acetate]?
Answer: second DAMGO response relative to the first (peak current) [17]: 29%+7%; effect of kinase modulators on desensitization (in words) [4]: further reduced the second response

Question: Which Ki [23] does the source give for YGGFMTSEKSQTPLVTLFKNAIIKNAYKKGE (peptide, UniProt P01189 237-267, looked up, mature) [β-endorphin] here?
Answer: Its Ki is 1.7 nM.

Question: For AGCKNFFWKTFTSC (peptide, UniProt P61278 103-116, looked up, mature) [Somatostatin-1-14], which IC50 [5] is on record?
Answer: Its IC50 is 730000 nM.
